Data published in article PMC9729883.

Legend:
[1] = biological target: afucosylated IgG1 and IgG3 (HLA-A2 mAbs, as a group for a mean dissociation rate); experiment: BLI; SAX2 tips loaded with biotinylated HLA-A2 (0.25 ug/mL), then recombinant HLA-A2 IgG (3 ug/mL, 600 s), dipped into 5 uM monomeric FcγRIIIa V158; 0.05% Tween-PBS; off-rate from a one phase exponential decay fit, reference tip subtracted
[2] = biological target: unmodified forms (of BB7.2 IgG1 and IgG3, as a group for a mean dissociation rate); experiment: as above

FcγRIIIa V158 (human, monomeric) (receptor)
koff [1]: 0.021 s⁻¹ | koff [2]: 0.46 s⁻¹
